Data on four molecules can be found in publication PMC4330346, “Function of the N-terminal segment of the RecA-dependent nuclease Ref” (Nucleic Acids Research, 2015).

One may read the stoichiometry N as a count of units in the complex or per binding partner.

The target in data set [1] is ϕW39 R11C Ref (bacteriophage ϕW39). Briefly: cross-linking; non-specific cross-linker disuccinimidyl glutarate (DSG) to trap the oligomeric states of Ref (Supplementary Figure S2).
For data set [2] the target is unchanged. The data set can be described thus: non-reducing SDS-PAGE; Ref dialysed free of DTT; 6.5 μg Ref, 50 mM sodium phosphate pH 7.5, 75 mM sodium chloride, no DTT; non-reducing cracking buffer, 4–15% gradient SDS-PAGE; the dimer is taken as disulfide-linked; 10 mM DTT substantially reduced the dimers of P1 WT Ref and ϕW39 R11C.
Data set [3] deals with the molecule itself. The data set can be described thus: AUC; preliminary ultracentrifugation, unpublished data; conditions not given.
The target in data set [4] is T1, phiW39 deltaN74 Ref (bacteriophage phiW39, R86T;A93T;N107E;A115S).
T1 sequence: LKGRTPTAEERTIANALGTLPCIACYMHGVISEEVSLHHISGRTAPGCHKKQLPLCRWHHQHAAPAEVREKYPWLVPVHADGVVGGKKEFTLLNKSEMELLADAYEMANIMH
The data set can be described thus: fluorescence polarization; 25 mM Tris-acetate pH 8.5, 3 mM potassium glutamate, 15 mM magnesium acetate, 5% w/v glycerol, 2 nM DNA, Ref 0.5-10000 nM, 15 min at room temperature, read at 25 C; one-site fit with Hill coefficient. Conditions: protein: recombinant, tags: none (native form). For orientation: Fluorescence polarisation rises when a labelled molecule tumbles more slowly, as on binding a larger partner.

For data set [5], the target named is T2, P1 deltaN76 Ref (bacteriophage P1, UniProt P35926 77-186, del1-76).
T2 sequence: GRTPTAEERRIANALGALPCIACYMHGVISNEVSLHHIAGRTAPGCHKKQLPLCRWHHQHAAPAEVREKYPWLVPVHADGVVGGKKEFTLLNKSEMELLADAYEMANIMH
The description is as above. Conditions: protein: recombinant, tags: none (native form).

Data set [6] addresses T3, phiW39 deltaN59 Ref (bacteriophage phiW39, R86T;A93T;N107E;A115S).
T3 sequence: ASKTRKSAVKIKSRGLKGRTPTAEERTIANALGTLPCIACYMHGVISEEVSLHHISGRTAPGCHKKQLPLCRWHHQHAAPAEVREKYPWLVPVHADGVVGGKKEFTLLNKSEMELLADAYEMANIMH
The data set can be described thus: fluorescence polarization; Kd value only in Figure 2C; 25 mM Tris-acetate pH 8.5, 3 mM potassium glutamate, 15 mM magnesium acetate, 5% w/v glycerol, 2 nM DNA, Ref 0.5-10000 nM, 15 min at room temperature, read at 25 C; one-site fit with Hill coefficient. Conditions: protein: recombinant; tags: none (native form); label: 5' 6-FAM; single strand.

For data set [7], the target named is T4, phiW39 WT Ref (bacteriophage phiW39, I8L;C11R;K13E;V34A;T46S;L47I;R86T;A93T;N107E;A115S).
T4 sequence: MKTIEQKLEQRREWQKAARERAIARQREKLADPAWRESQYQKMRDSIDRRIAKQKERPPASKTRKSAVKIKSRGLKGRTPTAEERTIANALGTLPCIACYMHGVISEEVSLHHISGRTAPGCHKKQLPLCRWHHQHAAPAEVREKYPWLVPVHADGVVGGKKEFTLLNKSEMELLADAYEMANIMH
Briefly: fluorescence polarization; apparent Kd; 25 mM Tris-acetate pH 8.5, 3 mM potassium glutamate, 15 mM magnesium acetate, 5% w/v glycerol, 2 nM DNA, Ref 0.5-10000 nM, 15 min at room temperature, read at 25 C; one-site fit with Hill coefficient. The conditions noted are these: protein: recombinant, tags: none (native form).

The mark [8] stands for this setting: label: 5' 6-FAM on strand 1, blunt.

Take ϕW39 R11C Ref (enzyme): the stoichiometry N in data set [1] and in data set [2] was 2 in each case.

B1: bacteriophage P1 Ref (recombination enhancement function) protein, wild type (enzyme, UniProt P35926 1-186, looked up)
chain: MKTIEQKIEQCRKWQKAARERAIARQREKLADPVWRESQYQKMRDTLDRRIAKQKERPPASKTRKSAVKIKSRGLKGRTPTAEERRIANALGALPCIACYMHGVISNEVSLHHIAGRTAPGCHKKQLPLCRWHHQHAAPAEVREKYPWLVPVHADGVVGGKKEFTLLNKSEMELLADAYEMANIMH
notes: has Cys11; Purified in native form (no tag)
Regarding B1, in data set [3], the “stoichiometry N” value worked out at 2.

B2: AJM25 71mer ssDNA (ssDNA)
DNA: CAGAAGTAAGTTGGCCGCAGTGTTATCACTCATGGTTATGGCAGCACTGCATAATTCTCTTACTGTCATGC
Regarding B2, the binding result in data set [4] (label: 5' 6-FAM, single strand) is recorded as “no binding”; in data set [5] (label: 5' 6-FAM, single strand) it was “no binding”. Moreover, the binding signal in data set [6] was ~40 fold reduction in affinity. Moreover, the Kd in data set [7] (label: 5' 6-FAM, single strand) came to 28 ± 2 nM.

B3: AJM25/AJG52 71 bp dsDNA (dsDNA)
DNA 1: CAGAAGTAAGTTGGCCGCAGTGTTATCACTCATGGTTATGGCAGCACTGCATAATTCTCTTACTGTCATGC
DNA 2: GCATGACAGTAAGAGAATTATGCAGTGCTGCCATAACCATGAGTGATAACACTGCGGCCAACTTACTTCTG
Turning to B3, the binding result in data set [4] (setting [8]) and in data set [5] (setting [8]) was “no binding” in each case. The Kd in data set [7] (setting [8]) was 24 ± 1 nM.
